The values below come from US20140161798A1 (Merck Sharp & Dohme, published 2014).

One assay deals with bacu-PCSK9-WT (UniProt Q8NBP7). The assay is described as follows: cell-based or functional assay.
Assay [1] addresses Purified PCSK9 carrying a C-terminal FLAG tag (UniProt Q8NBP7). The assay is described as follows: AlphaScreen PCSK9-FLAG/His-LDLR; log[antibody] ug/ml -1.9909. A general note: Bead proximity is the source of the signal in Alpha formats.
Assay [2] shares this target. Described as above. This is another data set of the same source.
For assay [3] the target is unchanged. The assay is described as follows: AlphaScreen PCSK9-FLAG/His-LDLR; log[antibody] ug/ml -0.08241.
The target is the same in assay [4]. The assay is described as follows: AlphaScreen PCSK9-FLAG/His-LDLR; log[antibody] ug/ml -0.55953.
The target is the same in assay [5]. Nature of the assay: AlphaScreen PCSK9-FLAG/His-LDLR; log[antibody] ug/ml -1.03665.
The target is the same in assay [6]. The assay is described as follows: AlphaScreen PCSK9-FLAG/His-LDLR; log[antibody] ug/ml -1.51377.
Assay [7] shares this target. Nature of the assay: AlphaScreen PCSK9-FLAG/His-LDLR; log[antibody] ug/ml -2.46802.
Assay [8] shares this target. The assay is described as follows: AlphaScreen PCSK9-FLAG/His-LDLR; log[antibody] ug/ml 0.394711.
The target is the same in assay [9]. Nature of the assay: AlphaScreen PCSK9-FLAG/His-LDLR; log[antibody] ug/ml 0.871832.
The target is the same in assay [10]. The assay is described as follows: AlphaScreen PCSK9-FLAG/His-LDLR; log[antibody] ug/ml 1.348954.
For assay [11] the target is unchanged. The assay is described as follows: AlphaScreen PCSK9-FLAG/His-LDLR; log[antibody] ug/ml 1.826075.
Assay [12] has the same target. The assay is described as follows: AlphaScreen PCSK9-FLAG/His-LDLR; log[antibody] ug/ml -0.08241. This is another data set of the same source.
The target is the same in assay [13]. The assay is described as follows: AlphaScreen PCSK9-FLAG/His-LDLR; log[antibody] ug/ml -0.55953. This is another data set of the same source.
Assay [14] shares this target. The assay is described as follows: AlphaScreen PCSK9-FLAG/His-LDLR; log[antibody] ug/ml -1.03665. This is another data set of the same source.
Assay [15] has the same target. Nature of the assay: AlphaScreen PCSK9-FLAG/His-LDLR; log[antibody] ug/ml -1.51377. This is another data set of the same source.
Assay [16] has the same target. Nature of the assay: AlphaScreen PCSK9-FLAG/His-LDLR; log[antibody] ug/ml -2.46802. The source holds these as a separate data set.
The target is the same in assay [17]. Nature of the assay: AlphaScreen PCSK9-FLAG/His-LDLR; log[antibody] ug/ml -2.94514.
Assay [18] shares this target. Nature of the assay: AlphaScreen PCSK9-FLAG/His-LDLR; log[antibody] ug/ml 0.394711. This is another data set of the same source.
Assay [19] has the same target. Nature of the assay: AlphaScreen PCSK9-FLAG/His-LDLR; log[antibody] ug/ml 0.871832. This is another data set of the same source.
Assay [20] has the same target. Nature of the assay: AlphaScreen PCSK9-FLAG/His-LDLR; log[antibody] ug/ml 1.348954. This is another data set of the same source.
The target is the same in assay [21]. Nature of the assay: AlphaScreen PCSK9-FLAG/His-LDLR; log[antibody] ug/ml 1.826075. This is another data set of the same source.
Assay [22] concerns the target T1, Purified PCSK9 carrying a C-terminal FLAG tag (UniProt Q8NBP7 31-692).
T1 construct: also called PCSK9-FLAG; PCSK9-Flag; not shown: C-terminal FLAG tag
Nature of the assay: AlphaScreen, inhibition of PCSK9-Flag/His-tagged LDL receptor interaction; average of two measurements. As to the method: This technique required that “donor” and “acceptor” beads be brought into proximity via protein—protein interaction, resulting in increased luminescence (Ullman et al., Proc. Nat. Acad. Sci. (1994) 91:5426-5430). […] About 2.5 μl of biotinylated anti-Flag-M2 antibody (1.8 μg/ml) was added and the mixture incubated for 1 hour. Afterward 5 μl of streptavidin donor bead and nickel chelate acceptor bead (1:1 mixture) was added and the assay incubated overnight. AlphaScreen signal (counts per second) was analyzed using an EnVision microplate reader (Perkin-Elmer). All data points were determined in triplicate. Assays were carried out at 23° C. in buffer containing 25 mM HEPES, 0.1 M NaCl, pH 7.4, 0.1% BSA. The inhibition assays were determined similarly with slight adjustments to assay volumes and protein concentrations.

Sequence of bacu-PCSK9-WT (Q8NBP7 31-692 limits assumed): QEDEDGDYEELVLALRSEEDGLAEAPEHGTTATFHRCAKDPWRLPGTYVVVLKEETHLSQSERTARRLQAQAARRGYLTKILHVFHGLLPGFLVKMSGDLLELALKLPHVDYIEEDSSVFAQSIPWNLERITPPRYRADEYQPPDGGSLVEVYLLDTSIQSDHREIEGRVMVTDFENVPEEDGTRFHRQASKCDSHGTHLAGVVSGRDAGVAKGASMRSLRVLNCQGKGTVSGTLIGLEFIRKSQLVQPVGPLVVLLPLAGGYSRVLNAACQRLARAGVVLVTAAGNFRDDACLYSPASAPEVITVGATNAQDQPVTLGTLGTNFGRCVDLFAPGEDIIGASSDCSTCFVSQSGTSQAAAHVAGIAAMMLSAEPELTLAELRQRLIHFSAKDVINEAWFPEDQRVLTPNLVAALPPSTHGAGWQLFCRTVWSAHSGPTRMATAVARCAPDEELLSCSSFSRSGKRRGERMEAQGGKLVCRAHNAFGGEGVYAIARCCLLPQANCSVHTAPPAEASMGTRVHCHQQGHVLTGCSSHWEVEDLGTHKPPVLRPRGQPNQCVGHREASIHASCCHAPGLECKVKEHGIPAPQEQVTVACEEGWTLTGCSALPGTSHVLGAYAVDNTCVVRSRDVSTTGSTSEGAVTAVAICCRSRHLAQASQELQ
Sequence of Purified PCSK9 carrying a C-terminal FLAG tag (UniProt Q8NBP7) (Q8NBP7 31-692 limits assumed): as above
T1 sequence (Q8NBP7 31-692 limits assumed): as above

Molecule “Rabbit anti-murine-PCSK9 polyclonal antibody, Cayman Chemical Cat.#10008811 (anti-PCSK9-catalytic domain antibody)” displayed a DiI-LDL uptake by HepG2 cells, 6 hour incubation, [PCSK9] 1.67 ug/ml, antibody 100 ug/ml (fluorescence intensity) in the assay with bacu-PCSK9-WT of 2.95e+07. In the assay with bacu-PCSK9-WT, this molecule returned a DiI-LDL uptake by HepG2 cells, 6 hour incubation, [PCSK9] 5 ug/ml, antibody 100 ug/ml (fluorescence intensity) of 2.56e+07. Moreover, the DiI-LDL uptake by HepG2 cells, 6 hour incubation, [PCSK9] 15 ug/ml, antibody 100 ug/ml (fluorescence intensity) in the assay with bacu-PCSK9-WT was determined as 2.24e+07. In the assay with bacu-PCSK9-WT, this molecule came in with a DiI-LDL uptake by HepG2 cells, 18 hour incubation, [PCSK9] 1.67 ug/ml, antibody 100 ug/ml (fluorescence intensity) of 3.2e+07. This molecule also had a DiI-LDL uptake by HepG2 cells, 18 hour incubation, [PCSK9] 5 ug/ml, antibody 100 ug/ml (fluorescence intensity) in the assay with bacu-PCSK9-WT of 2.59e+07. Also, the DiI-LDL uptake by HepG2 cells, 18 hour incubation, [PCSK9] 15 ug/ml, antibody 100 ug/ml (fluorescence intensity) with bacu-PCSK9-WT turned out to be 2.18e+07. Besides, the AlphaScreen mean counts in [1] was found to be 130000 counts; in assay [2], 81500 counts; in assay [3], 94800 counts; in [4], 128000 counts; in assay [5] it was 124000 counts; in assay [6], 126000 counts. Also, the AlphaScreen mean counts was determined as 132000 counts in [7]; 93500 counts in [8]; 55600 counts in [9]; 25800 counts in [10]; 6840 counts in assay [11]; 70000 counts in assay [12]. In addition, the AlphaScreen mean counts in assay [13] came out at 77400 counts; in [14], 79800 counts; in assay [15], 85600 counts; in assay [16], 80600 counts; in [17] it was 85400 counts; in assay [18], 60100 counts. Also, the AlphaScreen mean counts in assay [19] is 33300 counts; in assay [20], 12300 counts; in [21], 2100 counts.

B1: 1F11/1G11 anti-PCSK9 antibody (IgG2a) (antibody, V domains shown)
VH: EVQLQQSGPELVKPGASVKISCKVSGYTFTDYYMNWVKQSHGKSLEWIGDINPNNGGAIYNQKFKGKATLTVDKSSSIAYMELRSLTSEDSAVYYCTSGIITEIAEDFWGQGTTLTVSS
VL: DIVMTQSQKFMSTSVGDRVSVTCKASQNVGTNVVWYQQKPGQSPKALIHSASYRYSGVPDRFKGSGSGTDFTLTITNVQSEDLAGFFCQQYKTYPYTFGGGTQLEIKR
notes: also called anti-human PCSK9 Antibody, 1F11/1G11
For orientation: IC50 means the concentration needed to halve the response being measured. Higher therefore signals weaker potency in that assay. Regarding B1, in [22], the IC50 was determined as 0.049 nM.
